The target of assay [1] is T1, Vascular Endothelial Growth Factor (VEGF), receptor binding domain, VEGF_(8–109).
T1 chain: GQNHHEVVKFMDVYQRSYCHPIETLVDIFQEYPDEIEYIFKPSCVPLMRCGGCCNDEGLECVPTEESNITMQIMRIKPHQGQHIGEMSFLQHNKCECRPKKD
The experiment in a line: SPR. Particulars: chain shown with the change; for response (Response Units): 0.5 µM Fab, parent: est. 690, read off a plot.

The target of assay [2] is T1, Vascular Endothelial Growth Factor …. The experiment in a line: SPR (ΔG derived from KD). Particulars: chain shown with the change; 30°C, phosphate buffer (pH 7.4); parent: est. -12 kcal/mol; read off a plot.
The target is the same in assay [3]. The assay is described as follows: calculated from ΔG (SPR) and ΔH (ITC). Particulars: chain shown with the change; 30°C, phosphate buffer (pH 7.4); parent: est. -4.4 kcal/mol; read off a plot.
The mark [4] stands for this setting: 30°C, Fab over immobilized antigen.

B1: bH1-44 Fab (affinity-improved variant of bH1) HC:R50A; HC:R58A (protein)
chain 1: EVQLVESGGGLVQPGGSLRLSCAASGFNISGTYIHWVRQAPGKGLEWVAAIYPSEGYTAYADSVKGRFTISADTSKNTAYLQMNSLRAEDTAVYYCSRWVGVGFYAMDYWGQGTLVTVSS
chain 2: DIQMTQSPSSLSASVGDRVTITCRASQNIAKTISGYVAWYQQKPGKAPKLLIYWGSFLYSGVPSRFSGSGSGTDFTLTISSLQPEDFATYYCQQHYSSPPTFGQGTKVEIK
One may read the Kd as a measure of binding affinity in units of concentration. Read a high Kd as weaker binding. As a reminder, the koff is a measure of how fast the partners let go of each other. A higher koff goes with fast dissociation. On to B1, for which, in assay [1], the response (Response Units) is 600. In assay [1] (setting [4]), the Kd came out at 3 nM and the koff was 10 10^-4 s-1. In assay [2], the dG is -12 kcal/mol. For the same molecule, the other: -TΔS in assay [3] is -3.7 kcal/mol.

B2: bH1-44 Fab (affinity-improved variant of bH1) LC:Y32A (protein)
chain 1: EVQLVESGGGLVQPGGSLRLSCAASGFNISGTYIHWVRQAPGKGLEWVARIYPSEGYTRYADSVKGRFTISADTSKNTAYLQMNSLRAEDTAVYYCSRWVGVGFYAMDYWGQGTLVTVSS
chain 2: DIQMTQSPSSLSASVGDRVTITCRASQNIAKTISGAVAWYQQKPGKAPKLLIYWGSFLYSGVPSRFSGSGSGTDFTLTISSLQPEDFATYYCQQHYSSPPTFGQGTKVEIK
In the case of B2, the response (Response Units) in assay [1] turned out to be 60.

The values are drawn from publication PMC3081289.
